Data as given in patent US9018171B2, “Uses of an immunomodulatory protein (GMI) from Ganoderma microsporum” (Mycomagic Biotechnology Co., Ltd., priority 2010, dated 2015).
Like-named read-outs stand apart in the source and are kept apart here.

What was measured:
Format in all cases: cell-based
CCRF-CEM = experiment: NCI60 in vitro screening, Leukemia
HOP-62 = test system: HOP-62
HCT-116 = experiment: NCI60 in vitro screening, Colon Cancer
HT29 = experiment: NCI60 in vitro screening, Colon Cancer
SK-MEL-5 = experiment: NCI60 in vitro screening, Melanoma
UACC-257 = experiment: NCI60 in vitro screening, Melanoma
ACHN = experiment: NCI60 in vitro screening, Renal Cancer
MDA-MB-231/ATCC = experiment: NCI60 in vitro screening, Breast Cancer
NCI60 tumour cell lines = experiment: NCI60 in vitro screening, one dose, whole panel; conditions: mean over all cell lines

B1: GMI: immunomodulatory protein from Ganoderma microsporum, amino acid sequence SEQ ID NO: 3, manufactured by Mycomagic Biotechnology Co., Ltd. (protein, listed as Ganoderma microsporum)
chain: MSDTALIFTLAWNVKQLAFDYTPNWGRGRPSSFIDTVTFPTVLTDKAYTYRVVVSGKDLGVRPSYAVESDGSQKINFLEYNSGYGIADTNTIQVYVIDPDTGNNFIVAQWN
Question: With B1 as the molecule, how does the TGI (CCRF-CEM) read?
Answer: The TGI was greater than 1.25E2.

Question: What about the “Percent Growth” value (CCRF-CEM; Log10 Concentration 0.1) of the same molecule?
Answer: Its value is 97%.

Question: What about the “Percent Growth” value (CCRF-CEM; Log10 Concentration 1.1) of the same molecule?
Answer: The value was 58%.

Question: What about the “Percent Growth” value (CCRF-CEM; Log10 Concentration 2.1) of the same molecule?
Answer: The value was 18%.

Question: And the “Percent Growth” value (CCRF-CEM; Log10 Concentration −0.9)?
Answer: The value was 101%.

Question: And the “Percent Growth” value (CCRF-CEM; Log10 Concentration −1.9)?
Answer: Its value is 104%.

Question: What about the GI50 (CCRF-CEM; in µg/mL) of the same molecule?
Answer: Its GI50 is 2.02E1.

Question: What about the TGI (HOP-62; HOP-62) of the same molecule?
Answer: Its TGI is 5.99E1.

Question: And the “Percent Growth” value (HOP-62; HOP-62, Log10 Concentration 0.1)?
Answer: The value was 102%.

Question: And the “Percent Growth” value (HOP-62; HOP-62, Log10 Concentration 1.1)?
Answer: Its value is 73%.

Question: What about the “Percent Growth” value (HOP-62; HOP-62, Log10 Concentration 2.1) of the same molecule?
Answer: The value was −34%.

Question: And the “Percent Growth” value (HOP-62; HOP-62, Log10 Concentration −0.9)?
Answer: Its value is 102%.

Question: What about the “Percent Growth” value (HOP-62; HOP-62, Log10 Concentration −1.9) of the same molecule?
Answer: Its value is 104%.

Question: What about the “Growth Percent” value (HOP-62; HOP-62, one dose) of the same molecule?
Answer: The value was 53.89%.

Question: And the GI50 (HOP-62; HOP-62, in µg/mL)?
Answer: Its GI50 is 2.03E1.

Question: What about the TGI (HCT-116; HCT-116) of the same molecule?
Answer: Its TGI is greater than 1.25E2.

Question: What about the “Percent Growth” value (HCT-116; HCT-116, Log10 Concentration 0.1) of the same molecule?
Answer: The value was 101%.

Question: What about the “Percent Growth” value (HCT-116; HCT-116, Log10 Concentration 1.1) of the same molecule?
Answer: The value was 103%.

Question: What about the “Percent Growth” value (HCT-116; HCT-116, Log10 Concentration 2.1) of the same molecule?
Answer: Its value is 104%.

Question: And the “Percent Growth” value (HCT-116; HCT-116, Log10 Concentration −0.9)?
Answer: Its value is 105%.

Question: And the “Percent Growth” value (HCT-116; HCT-116, Log10 Concentration −1.9)?
Answer: Its value is 98%.

Question: What about the “Growth Percent” value (HCT-116; HCT-116, one dose) of the same molecule?
Answer: The value was 101.77%.

Question: What about the TGI (HT29; HT29) of the same molecule?
Answer: Its TGI is greater than 1.25E2.

Question: And the “Percent Growth” value (HT29; HT29, Log10 Concentration 0.1)?
Answer: The value was 98%.

Question: What about the “Percent Growth” value (HT29; HT29, Log10 Concentration 1.1) of the same molecule?
Answer: Its value is 57%.

Question: And the “Percent Growth” value (HT29; HT29, Log10 Concentration 2.1)?
Answer: Its value is 22%.

Question: And the “Percent Growth” value (HT29; HT29, Log10 Concentration −0.9)?
Answer: Its value is 99%.

Question: What about the “Percent Growth” value (HT29; HT29, Log10 Concentration −1.9) of the same molecule?
Answer: Its value is 100%.

Question: And the “Growth Percent” value (HT29; HT29, one dose)?
Answer: The value was 28.36%.

Question: And the GI50 (HT29; HT29, in µg/mL)?
Answer: The GI50 was 1.95E1.

Question: And the TGI (SK-MEL-5; SK-MEL-5)?
Answer: The TGI was 4.26E1.

Question: And the “Percent Growth” value (SK-MEL-5; SK-MEL-5, Log10 Concentration 0.1)?
Answer: Its value is 103%.

Question: And the “Percent Growth” value (SK-MEL-5; SK-MEL-5, Log10 Concentration 1.1)?
Answer: Its value is 94%.

Question: And the “Percent Growth” value (SK-MEL-5; SK-MEL-5, Log10 Concentration 2.1)?
Answer: Its value is −83%.

Question: What about the “Percent Growth” value (SK-MEL-5; SK-MEL-5, Log10 Concentration −0.9) of the same molecule?
Answer: Its value is 101%.

Question: And the “Percent Growth” value (SK-MEL-5; SK-MEL-5, Log10 Concentration −1.9)?
Answer: The value was 101%.

Question: And the “Growth Percent” value (SK-MEL-5; SK-MEL-5, one dose)?
Answer: Its value is 83.26%.

Question: What about the GI50 (SK-MEL-5; SK-MEL-5, in µg/mL) of the same molecule?
Answer: The GI50 was 2.22E1.

Question: And the LC50 (SK-MEL-5; SK-MEL-5, in µg/mL)?
Answer: The LC50 was 8.17E1.

Question: And the TGI (UACC-257; UACC-257)?
Answer: Its TGI is greater than 1.25E2.

Question: What about the “Percent Growth” value (UACC-257; UACC-257, Log10 Concentration 0.1) of the same molecule?
Answer: The value was 98%.

Question: And the “Percent Growth” value (UACC-257; UACC-257, Log10 Concentration 1.1)?
Answer: Its value is 37%.

Question: And the “Percent Growth” value (UACC-257; UACC-257, Log10 Concentration 2.1)?
Answer: Its value is 52%.

Question: What about the “Percent Growth” value (UACC-257; UACC-257, Log10 Concentration −0.9) of the same molecule?
Answer: Its value is 99%.

Question: And the “Percent Growth” value (UACC-257; UACC-257, Log10 Concentration −1.9)?
Answer: Its value is 103%.

Question: And the “Growth Percent” value (UACC-257; UACC-257, one dose)?
Answer: Its value is 89.25%.

Question: What about the TGI (ACHN) of the same molecule?
Answer: Its TGI is 3.62E1.

Question: And the “Percent Growth” value (ACHN; Log10 Concentration 0.1)?
Answer: The value was 103%.

Question: What about the “Percent Growth” value (ACHN; Log10 Concentration 1.1) of the same molecule?
Answer: Its value is 36%.

Question: And the “Percent Growth” value (ACHN; Log10 Concentration 2.1)?
Answer: Its value is −42%.

Question: And the “Percent Growth” value (ACHN; Log10 Concentration −0.9)?
Answer: Its value is 99%.

Question: What about the “Percent Growth” value (ACHN; Log10 Concentration −1.9) of the same molecule?
Answer: Its value is 109%.

Question: What about the GI50 (ACHN; in µg/mL) of the same molecule?
Answer: Its GI50 is 7.65E0.

Question: What about the “Growth Percent” value (ACHN; one dose) of the same molecule?
Answer: The value was −33.94%.

Question: What about the TGI (MDA-MB-231/ATCC) of the same molecule?
Answer: Its TGI is 3.65E1.

Question: And the “Percent Growth” value (MDA-MB-231/ATCC; Log10 Concentration 0.1)?
Answer: The value was 93%.

Question: What about the “Percent Growth” value (MDA-MB-231/ATCC; Log10 Concentration 1.1) of the same molecule?
Answer: The value was 41%.

Question: What about the “Percent Growth” value (MDA-MB-231/ATCC; Log10 Concentration 2.1) of the same molecule?
Answer: The value was −47%.

Question: And the “Percent Growth” value (MDA-MB-231/ATCC; Log10 Concentration −0.9)?
Answer: Its value is 96%.

Question: What about the “Percent Growth” value (MDA-MB-231/ATCC; Log10 Concentration −1.9) of the same molecule?
Answer: Its value is 103%.

Question: And the GI50 (MDA-MB-231/ATCC; in µg/mL)?
Answer: The GI50 was 8.34E0.

Question: And the “Growth Percent” value (MDA-MB-231/ATCC; one dose)?
Answer: The value was 23.69%.

Question: What about the “Growth Percent, Mean” value (NCI60 tumour cell lines) of the same molecule?
Answer: Its value is 64.66%.
